# Laboratory results as given in the Immune Epitope Database (IEDB).
# Columns and labels:
# [1] = target: HLA-A*01:01; test: IEDB peptide-MHC binding, purified MHC/direct/fluorescence; filed as Kd, often an IC50 or EC50 that approximates it; ≥ and ≤ were set here for values at or beyond the usual limits of such assays
# [2] = target: HLA-A*80:01; test: as above
# [3] = target: HLA-B*15:09; test: as above; conditions: source organism: Vibrio vulnificus YJ016
# [4] = target: HLA-B*40:01; test: as above
# [5] = target: HLA-A*03:01; test: as above
# [6] = target: HLA-B*58:01; test: as above
# [7] = target: HLA-B*46:01; test: as above
# [8] = target: HLA-B*57:01; test: as above
# [9] = target: HLA-B*27:05; test: as above
# [10] = target: HLA-B*15:17; test: as above; conditions: source organism: Vibrio vulnificus YJ016
# [11] = target: HLA-B*38:01; test: as above; conditions: source organism: Vibrio vulnificus YJ016
# [12] = target: HLA-B*15:01; test: as above
# [13] = target: HLA-A*26:01; test: as above
# [14] = target: HLA-B*48:01; test: as above; conditions: source organism: Vibrio vulnificus YJ016
# [15] = target: HLA-A*31:01; test: as above
# [16] = target: HLA-A*11:01; test: as above
# [17] = target: HLA-A*02:06; test: IEDB peptide-MHC binding, purified MHC/competitive/fluorescence; filed as Kd, often an IC50 or EC50 that approximates it; ≥ and ≤ were set here for values at or beyond the usual limits of such assays
# [18] = target: HLA-A*02:01; test: as above; conditions: source organism: Vibrio vulnificus YJ016
# [19] = target: HLA-A*69:01; test: as above; conditions: source organism: Vibrio vulnificus YJ016
# [20] = target: HLA-B*18:01; test: as above; conditions: source organism: Vibrio vulnificus YJ016
# [21] = target: HLA-B*08:01; test: as above; conditions: source organism: Vibrio vulnificus YJ016
# [22] = target: HLA-A*30:01; test: as above; conditions: source organism: Vibrio vulnificus YJ016
# [23] = target: HLA-B*39:01; test: as above; conditions: source organism: Vibrio vulnificus YJ016
# [24] = target: HLA-B*44:02; test: IEDB peptide-MHC binding, purified MHC/direct/fluorescence; filed as Kd, often an IC50 or EC50 that approximates it; ≥ and ≤ were set here for values at or beyond the usual limits of such assays
# [25] = target: HLA-A*24:02; test: as above
# [26] = target: HLA-B*07:02; test: as above
# [27] = target: HLA-A*02:01; test: as above
# [28] = target: HLA-A*69:01; test: as above
# [29] = target: HLA-B*18:01; test: as above
# [30] = target: HLA-A*02:50; test: IEDB peptide-MHC binding, purified MHC/competitive/fluorescence; filed as Kd, often an IC50 or EC50 that approximates it; ≥ and ≤ were set here for values at or beyond the usual limits of such assays; conditions: source organism: Shigella boydii CDC 3083-94
# [31] = target: HLA-A*02:12; test: IEDB peptide-MHC binding, purified MHC/direct/fluorescence; filed as Kd, often an IC50 or EC50 that approximates it; ≥ and ≤ were set here for values at or beyond the usual limits of such assays; conditions: source organism: Amur virus Solovey/AP63/1999
# [32] = target: HLA-A*02:11; test: as above; conditions: source organism: Amur virus Solovey/AP63/1999
# [33] = target: HLA-C*07:02; test: as above; conditions: source organism: Hantaan virus 76-118
# [34] = target: HLA-C*04:01; test: as above
# [35] = target: HLA-A*24:03; test: as above; conditions: source organism: Influenza A virus (A/Hong Kong/516/97(H5N1))
# [36] = target: HLA-A*68:02; test: as above; conditions: source organism: Influenza A virus (A/Hong Kong/516/97(H5N1))
# [37] = target: HLA-B*08:01; test: as above
# [38] = target: HLA-A*26:02; test: IEDB peptide-MHC binding, purified MHC/competitive/fluorescence; filed as Kd, often an IC50 or EC50 that approximates it; ≥ and ≤ were set here for values at or beyond the usual limits of such assays; conditions: source organism: Influenza A virus (A/Fort Monmouth/1/1947-mouse adapted(H1N1))
# [39] = target: HLA-B*15:17; test: as above; conditions: source organism: Influenza A virus (A/Fort Monmouth/1/1947-mouse adapted(H1N1))
# [40] = target: HLA-B*08:02; test: IEDB peptide-MHC binding, purified MHC/direct/fluorescence; filed as Kd, often an IC50 or EC50 that approximates it; ≥ and ≤ were set here for values at or beyond the usual limits of such assays; conditions: source organism: Influenza A virus H3N2
# [41] = target: HLA-A*24:02; test: IEDB peptide-MHC binding, purified MHC/competitive/fluorescence; filed as Kd, often an IC50 or EC50 that approximates it; ≥ and ≤ were set here for values at or beyond the usual limits of such assays; conditions: source organism: Shigella flexneri 5 str. 8401
# [42] = source organism: Burkholderia mallei
# [43] = source organism: Vibrio vulnificus YJ016
# [44] = source organism: Escherichia coli O157:H7
# [45] = source organism: Francisella tularensis subsp. holarctica LVS
# [46] = source organism: Influenza A virus (A/Hong Kong/516/97(H5N1))
# [47] = source organism: Influenza A virus (A/Puerto Rico/8/34/Mount Sinai(H1N1))
# [48] = source organism: Influenza A virus (A/Switzerland/8808/2002(H1N1))
sequence,measurement,setting,value
ALRRRTGTR,Kd,[1]; [42],≥ 20 µM
same,Kd,[2]; [42],≥ 20 µM
EPADHLAIM,Kd,[1]; [43],≥ 20 µM
same,Kd,[3],≥ 20 µM
same,Kd,[4]; [43],≥ 20 µM
same,Kd,[5]; [43],≥ 20 µM
same,Kd,[6]; [43],≥ 20 µM
same,Kd,[7]; [43],≥ 20 µM
same,Kd,[8]; [43],≥ 20 µM
same,Kd,[9]; [43],≥ 20 µM
same,Kd,[10],≥ 20 µM
same,Kd,[11],≥ 20 µM
same,Kd,[12]; [43],≥ 20 µM
same,Kd,[13]; [43],0.047 µM
same,Kd,[14],≥ 20 µM
same,Kd,[15]; [43],≥ 20 µM
same,Kd,[16]; [43],≥ 20 µM
same,Kd,[17]; [43],≥ 20 µM
same,Kd,[18],0.691 µM
same,Kd,[19],≥ 20 µM
same,Kd,[20],3 µM
same,Kd,[21],≥ 20 µM
same,Kd,[22],≥ 20 µM
same,Kd,[23],1.21 µM
GMAEDLQSL,Kd,[1]; [44],≥ 20 µM
same,Kd,[4]; [44],≥ 20 µM
same,Kd,[5]; [44],≥ 20 µM
same,Kd,[24]; [44],≥ 20 µM
same,Kd,[6]; [44],≥ 20 µM
same,Kd,[25]; [44],≥ 20 µM
same,Kd,[26]; [44],≥ 20 µM
same,Kd,[9]; [44],≥ 20 µM
same,Kd,[12]; [44],0.39 µM
same,Kd,[27]; [44],0.0657 µM
same,Kd,[28]; [44],1 µM
same,Kd,[29]; [44],≥ 20 µM
same,Kd,[15]; [44],≥ 20 µM
same,Kd,[16]; [44],≥ 20 µM
same,Kd,[30],≤ 0.0001 µM
LTDKSGSEY,Kd,[1]; [45],0.0012 µM
same,Kd,[2]; [45],0.29 µM
SMLSYGNVL,Kd,[31],0.075 µM
same,Kd,[32],0.003 µM
same,Kd,[27]; source organism: Amur virus,≤ 0.001 µM
same,Kd,[33],0.614 µM
STEFIPNLF,Kd,[34]; source organism: human gammaherpesvirus 4,≥ 20 µM
SYINRTGTF,Kd,[1]; [46],≥ 20 µM
same,Kd,[4]; [46],≥ 20 µM
same,Kd,[5]; [46],≥ 20 µM
same,Kd,[24]; [46],≥ 20 µM
same,Kd,[6]; [46],≥ 20 µM
same,Kd,[25]; [46],0.0054 µM
same,Kd,[8]; [46],≥ 20 µM
same,Kd,[35],0.0018 µM
same,Kd,[26]; [46],≥ 20 µM
same,Kd,[9]; [46],≥ 20 µM
same,Kd,[12]; [47],0.584 µM
same,Kd,[27]; [46],≥ 20 µM
same,Kd,[36],≥ 20 µM
same,Kd,[13]; [46],≥ 20 µM
same,Kd,[28]; [46],≥ 20 µM
same,Kd,[29]; [46],≥ 20 µM
same,Kd,[37]; [46],≥ 20 µM
same,Kd,[15]; [46],≥ 20 µM
same,Kd,[16]; [46],≥ 20 µM
same,Kd,[38],3.67 µM
same,Kd,[17]; source organism: Influenza A virus (A/Fort Monmouth/1/1947-mouse adapted(H1N1)),≥ 20 µM
same,Kd,[39],0.477 µM
VPAQNAIST,Kd,[1]; [48],≥ 20 µM
same,Kd,[4]; [48],≥ 20 µM
same,Kd,[5]; [48],≥ 20 µM
same,Kd,[6]; [48],≥ 20 µM
same,Kd,[25]; [48],≥ 20 µM
same,Kd,[40],≥ 20 µM
same,Kd,[7]; [48],≥ 20 µM
same,Kd,[26]; [47],0.063 µM
same,Kd,[9]; [48],≥ 20 µM
same,Kd,[12]; [48],≥ 20 µM
same,Kd,[27]; [48],≥ 20 µM
same,Kd,[13]; source organism: Influenza A virus H3N2,≥ 20 µM
same,Kd,[28]; [48],≥ 20 µM
same,Kd,[29]; [48],≥ 20 µM
same,Kd,[37]; [48],≥ 20 µM
same,Kd,[15]; [48],≥ 20 µM
same,Kd,[16]; [48],≥ 20 µM
VSITNPFLF,Kd,[34]; source organism: Shigella flexneri 5 str. 8401,≥ 20 µM
same,Kd,[41],0.0057 µM
